Assay results taken from US20130217060A1 (Butamax(TM) Advanced Biofuels LLC, priority 2007, published 2013).

B1: Ald protein: butyraldehyde dehydrogenase (SEQ ID NO:12) from C. beijerinckii ATCC 35702 expressed in E. coli (protein, listed as Clostridium beijerinckii)
chain: MNKDTLIPTTKDLKVKTNGENINLKNYKDNSSCFGVFENVENAISSAVHAQKILSLHYTKEQREKIITEIRKAALQNKEVLATMILEETHMGRYEDKILKHELVAKYTPGTEDLTTTAWSGDNGLTVVEMSPYGVIGAITPSTNPTETVICNSIGMIAAGNAVVFNGHPCAKKCVAFAVEMINKAIISCGGPENLVTTIKNPTMESLDAIIKHPSIKLLCGTGGPGMVKTLLNSGKKAIGAGAGNPPVIVDDTADIEKAGRSIIEGCSFDNNLPCIAEKEVFVFENVADDLISNMLKNNAVIINEDQVSKLIDLVLQKNNETQEYFINKKWVGKDAKLFLDEIDVESPSNVKCIICEVNANHPFVMTELMMPILPIVRVKDIDEAIKYAKIAEQNRKHSAYIYSKNIDNLNRFEREIDTTIFVKNAKSFAGVGYEAEGFTTFTIAGSTGEGITSARNFTRQRRCVLAG
B2: TER CAC0462 protein: putative trans-2-enoyl-CoA reductase (SEQ ID NO:10) from C. acetobutylicum ATCC 824 expressed in E. coli (protein, listed as Clostridium acetobutylicum)
chain: MIVKAKFVKGFIRDVHPYGCRREVLNQIDYCKKAIGFRGPKKVLIVGASSGFGLATRISVAFGGPEAHTIGVSYETGATDRRIGTAGWYNNIFFKEFAKKKGLVAKNFIEDAFSNETKDKVIKYIKDEFGKIDLFVYSLAAPRRKDYKTGNVYTSRIKTILGDFEGPTIDVERDEITLKKVSSASIEEIEETRKVMGGEDWQEWCEELLYEDCFSDKATTIAYSYIGSPRTYKIYREGTIGIAKKDLEDKAKLINEKLNRVIGGRAFVSVNKALVTKASAYIPTFPLYAAILYKVMKEKNIHENCIMQIERMFSEKIYSNEKIQFDDKGRLRMDDLELRKDVQDEVDRIWSNITPENFKELSDYKGYKKEFMNLNGFDLDGVDYSKDLDIELLRKLEP

How the values were obtained:
[1] = tested on: butyraldehyde dehydrogenase; assay: Acylating aldehyde dehydrogenase activity (NADH formation, 340 nm); settings: induced E. coli BL21-AI culture, one typical assay
[2] = tested on: trans-2-enoyl-CoA reductase; assay: Trans-2-enoyl-CoA reductase activity assay (Hoffmeister et al.); type: biochemical; settings: induced E. coli BL21-AI culture carrying pRARE, one typical assay
Protocol: Trans-2-enoyl-CoA reductase activity was assayed as described by Hoffmeister et al. (J. Biol. Chem. 280, 4329-4338 (2005)).
Trans-2-enoyl-CoA reductase activity was assayed as described by Hoffmeister et al., J. Biol. Chem. 280:4329 (2005).
Enzyme assays were performed as described above.

| Molecule | specific activity (acylating aldehyde dehydrogenase) [1] | specific activity (trans-2-enoyl-CoA reductase) [2] |
| --- | --- | --- |
| B1 | 0.106 µmol/mg/min | – |
| B2 | – | 0.694 µmol/mg/min |
